According to patent publication US9688764B2, “Methods of treating breast cancer by administering anti-human prolactin receptor (PRLR) antibodies” (REGENERON PHARMACEUTICALS, INC., priority 2013, dated 2017):

T1: PRLR-expressing cells (T47D) (Homo sapiens, UniProt P16471)
T1 construct: a native PRLR expressing cell line (T47D); endogenous in cells; host or cells: T47D
T1 sequence (P16471 25-622): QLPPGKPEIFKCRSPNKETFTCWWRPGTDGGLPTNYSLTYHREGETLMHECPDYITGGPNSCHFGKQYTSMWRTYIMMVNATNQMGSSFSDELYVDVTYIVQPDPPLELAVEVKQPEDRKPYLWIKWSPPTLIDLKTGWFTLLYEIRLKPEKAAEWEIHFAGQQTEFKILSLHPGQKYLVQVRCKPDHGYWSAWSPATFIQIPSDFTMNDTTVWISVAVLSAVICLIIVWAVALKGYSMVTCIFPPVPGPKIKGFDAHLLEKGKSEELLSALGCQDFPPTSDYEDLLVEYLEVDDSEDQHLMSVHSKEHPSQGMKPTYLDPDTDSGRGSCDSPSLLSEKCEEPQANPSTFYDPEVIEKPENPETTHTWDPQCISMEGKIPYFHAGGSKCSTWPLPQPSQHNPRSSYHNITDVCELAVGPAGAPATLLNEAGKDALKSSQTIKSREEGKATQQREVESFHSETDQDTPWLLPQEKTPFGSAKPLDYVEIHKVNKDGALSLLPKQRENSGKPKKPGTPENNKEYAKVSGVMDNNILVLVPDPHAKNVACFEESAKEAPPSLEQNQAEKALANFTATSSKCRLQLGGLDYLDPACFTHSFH

B1: H1H6803P: anti-PRLR antibody, human IgG1 Fc; HCVR/LCVR SEQ ID NOs 226/234 (antibody, V domains shown)
VH: EVQLVESGGGVVRPGGSLRLSCAASGFKFDDYGMTWVRHVPGKGLEWVSGINWNGGRTGYTDSVKGRFTISRDNAKNSLYLQMNSLRAEDTALYHCAGARRDAFDIWGQGTMVTVSS
VL: DIQMTQSPSSLSASIGDRVTITCRASQNIIKYLNWYQQNAGKAPKLLIYTASSLQSGVPSRFSGSGSGTDFTLTISSLQPEDFATYYCQQSSSSPYTFGQGTKLEIK
modifications: human IgG1 Fc
B2: H1H6801P: anti-PRLR antibody, human IgG1 Fc; HCVR/LCVR SEQ ID NOs 210/218 (antibody, V domains shown)
VH: QVQLQQSGPGLVKPSQTLSLTCVISGDSVSSNTAWNWVRQSPSRGLEWLGRTYYRSKWYNDYAVSVKSRITINPDTSKNQFSLLMNSVTPEDTAVYYCARVVRGLNYFDYWGQGTLVTVSS
VL: DIVMTQSPDSLAVSLGERATINCKSSQSVLYNSNNKNYLAWYQQKPGQPPKLLIYWSSSRESGVPDRFSGSGSGTDFTLTISGLQAEDVAIYYCQQYSTIPYTFGQGTKLEIK
modifications: human IgG1 Fc
B3: H1H6793P: anti-PRLR antibody, human IgG1 Fc; HCVR/LCVR SEQ ID NOs 146/154 (antibody, V domains shown)
VH: EVQLVESGGGLVQPGGSLRLSCAASGFSFSIYAMSWFRQAPGKGLEWVSAINGRGDGTHYADSVKGRFTISRDNSKTTLYLQMSSLRAEDTAVYYCAKPVMSTNGFDIWGQGTMVTVSS
VL: DIQMTQSPSTLSASVGDRVTITCRASQSISSWLAWYQLKPGKAPKLLIYKASNLESGVPSRFSGSGSGTEFTLTISSLQPDDFATYYCQQYNIYWTFGQGTKVEIK
modifications: human IgG1 Fc
B4: H1H6800P: anti-PRLR antibody, human IgG1 Fc; HCVR/LCVR SEQ ID NOs 194/202 (antibody, V domains shown)
VH: EVQLVESGGGLVQPGRSLRLSCAASGFTFDGYAMHWVRQGPGKGLEWVSGISWYSDTLGYADSVKGRFTISRDNAKNSLYLQMNSLRTEDTAFYYCAKISSSGWAFDYWGQGTLVTVSS
VL: EIVLTQSPGTLSLSPGERATLSCRASHSVSSAYLAWYQQKPGQTPRLLIYGTSSRATGIPDRFSGSGSGTDFTLTISRLEPEDFAVYYCQQYGSSPLFTFGPGTKVDIK
modifications: human IgG1 Fc
B5: H1H6795P: anti-PRLR antibody, human IgG1 Fc; HCVR/LCVR SEQ ID NOs 162/170 (antibody, V domains shown)
VH: QVQLVQSGAEVKKPGASVKVSCKASGYTFGTSGITWVRQAPGQGLEWMGWSSAYNGKTDYAQKFQDRVTMTTDTSTTTGYMEMRSLTSDDTAVYYCTTVVRRPFDFWGQGTLVTVSS
VL: DIQMTQSPSSLSASVGDRVTITCRASQDINNFLAWFQQKPGKAPKSLIYAASSLQSGVPSKFSGGGSGTDFALTISSLQPEDFATYYCQQYSSYPITFGQGTRLEIK
modifications: human IgG1 Fc
B6: H1H6792P: anti-PRLR antibody, human IgG1 Fc; HCVR/LCVR SEQ ID NOs 130/138 (antibody, V domains shown)
VH: EVQLVESGGGLVQPGRSLRLSCAASGFTLDDHAVHWVRQAPGKGLEWVSGISWNSVYIDYADSVKGRFTIFRDNAKNSLYLQMNSLRAEDTAFYYCARDIEGARDYWGQGTLVTVSS
VL: DIQMTQSPSSLSASVGDRVTITCRASQGIRNDLGWYQQKPGKAPKRLIYAASSLQSGVPSRFSGSGYGTEFTLTISSLQPEDFAPYYCLQHNSYPLTFGGGTKVEIK
modifications: human IgG1 Fc
B7: H1H6797P: anti-PRLR antibody, human IgG1 Fc; HCVR/LCVR SEQ ID NOs 178/186 (antibody, V domains shown)
VH: EVQLVESGGGLVQPGGSLRLSCIVSGFTFSGSWMSWVRQLPGKGLEWVANIKEDGSDSYYVDSVEGRFTISRDNAKSSLYLQMNSLRVDDTAVYFCARARTVPLHYWGQGTLVTVSS
VL: DIQMTQSPSTLSASVGDRVTITCRASQSINIWLAWYQQKPGKAPKLLIYRASYLESGVPSSFAGGGSGTEFTLTISSLQPDDFGTYYCQHYNSYPFTFGQGTKLEIK
modifications: human IgG1 Fc

Tests used:
HEK293/mfPRLR = test: FACS cell surface binding; design: species or system macaca fascicularis
Procedure: The ability of anti-PRLR antibodies to selectively bind PRLR expressing cell lines was next determined. Human, monkey macaca fascicularis, and mouse PRLR constructs with an HA tag were stably introduced into HEK293 cells via Lipofectamine 2000-mediated transfection methodology. Transfectants (HEK293/hPRLR, HEK293/mfPRLR and HEK293/mPRLR) were selected for at least 2 weeks in complete growth media plus G418.
Cell surface expression of PRLR on 293/hPRLR cells was assessed via FACS analysis. Briefly, 1×10^5 cells were incubated with 10 μg/ml of Control antibody I, or an isotype control for 30 min on ice in antibody dilution buffer. Following two washes with antibody dilution buffer, cells were incubated with 10 μg/ml of PE conjugated anti-human secondary antibodies for 30 min on ice. Following two additional washes, samples were run on a Hypercyt® cytometer and analyzed in FORECYT™ (IntelliCyt, Albuquerque, N. Mex.). The mean fluorescence intensities (MFI) were expressed as fold change above isotype control levels (background). FACS binding confirmed that Control I selectively bound to 293/hPRLR expressing cells with MFIs that were 30 fold above background (isotype ctrl) levels and less than 2 fold binding on parental cells.
Next, the anti-PRLR antibodies of the present invention were tested via FACS for selective binding to the engineered overexpressing PRLR HEK293 cell lines, as well as to non-expressing HEK293 cells and a native PRLR expressing cell line (T47D).

[1] = molecular target: T1, PRLR-expressing cells (T47D); test: Antibody binding and internalization by PRLR-expressing cells (imaging); type: cell-based; details: [mAb] (0.67 nM); for % Internalization relative to Control I: alexa488 intensity in intracellular vesicles, 1 h at 37° C.; for % Total Binding relative to Control I: whole cell alexa488 intensity at 37° C.
Procedure: In this Example, the internalization of anti-PRLR antibodies by PRLR-expressing cells (T47D) was assessed. Briefly, 20,000 T47D cells were seeded in collagen coated 96 well plates. […] Cells were then incubated with alexa488 conjugated anti-hFc Fab secondary antibodies for 30 minutes on ice followed by two additional PBS washes. Antibodies were allowed to internalize for 1 h at 37° C. in internalization buffer (PBS+2% FBS) or remained at 4° C. Cells were fixed in 4% formaldehyde, nuclei were stained with DRAQ5 (Cell signaling), and images were acquired on the ImageXpress micro XL (Molecular Devices). Whole cell alexa488 intensity at 37° C. (Binding) and the alexa488 intensity in the intracellular vesicles at 37° C. (Internalization) were determined via Columbus image analysis software (PerkinElmer).

[2] = tested on: HEK293/hPRLR/STAT5-Luc cells (human PRLR); test: STAT5-Luc luciferase reporter assay, blocking of PRL-mediated receptor activation; type: cell-based; details: for IC50: 5 nM constant PRL, 6 hr at 37° C.; for Percent Blocking at 100 nM Antibody: 5 nM PRL
Description: The ability of anti-PRLR antibodies to block prolactin (PRL)-mediated receptor activation was examined in a luciferase-based reporter assay. The endocrine hormone PRL binds to the extracellular domain of its cognate receptor PRLR, triggering rapid homodimerization and activating several downstream signaling cascades.
In this example, an engineered cell line was used to determine the ability of anti-PRLR antibodies to block ligand activation of the PRLR receptor. Briefly, HEK293/hPRLR/STAT5-Luc cell lines with stable incorporation of a human PRLR expression cassette and the STAT5-dependent luciferase reporter were generated via sequential rounds of Lipofectamine® 2000-mediated transfection (LifeTechnologies, Carlsbad, Calif.). Cells were selected for at least two weeks in the presence of 500 μg/mL G418 (hPRLR) and 100 μg/mL hygromycin B (STAT5-Luc). The STAT5-Luc assay utilized 2×10^5 HEK293/hPRLR/STAT5-Luc cells seeded in complete growth medium on PDL-coated 96 well plates grown overnight at 37° C., 5% CO2. To generate antibody inhibition curves, cells were incubated (6 hr at 37° C.) with serially diluted anti-human PRLR antibodies (100 nM to 24 pM) in the presence of 5 nM constant PRL before recording signal. PRL dose response curves were generated by the addition of serially diluted PRL (100 nM to 24 pM) to cells and recording signal after a 6 hr (37° C.) incubation in the absence of antibodies. The ability of the antibodies to activate PRLR in the absence of ligand was also assessed.
Luciferase activity was measured with ONE-GLO™ reagent (Promega, Madison, Wis.). Relative light units (RLUs) were measured on a Victor luminometer (Perkin Elmer, Shelton, Conn.). EC50/IC50 values were determined from a four-parameter logistic equation over an 8-point response curve using GraphPad Prism. Percent blocking and percent activation are reported for the highest antibody dose.

Chain of HEK293/mfPRLR (as listed by the source): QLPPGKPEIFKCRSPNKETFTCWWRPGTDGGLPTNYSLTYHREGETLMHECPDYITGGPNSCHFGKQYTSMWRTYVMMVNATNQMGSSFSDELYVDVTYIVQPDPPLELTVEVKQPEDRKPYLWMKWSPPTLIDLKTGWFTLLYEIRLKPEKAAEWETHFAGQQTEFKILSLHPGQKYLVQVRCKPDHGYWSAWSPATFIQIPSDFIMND

Row | Molecule | FACS Cell Binding (Fold Above Background) (HEK293/mfPRLR) | % Internalization relative to Control I [1] [%] | % Total Binding relative to Control I [1] [%] | IC50 [2] [pM] | Percent Blocking at 100 nM Antibody [2] [%]
1 | B1 | 28 | 190.5 | 205.5 | 627 | 100
2 | B2 | 88 | 148.9 | 155.7 | 140 | 100
3 | B3 | 32 | 179.9 | 177.9 | – | 65
4 | B4 | 29 | 198.3 | 186.8 | 355 | 100
5 | B5 | 22 | 150.7 | 123.4 | – | 0
6 | B6 | 28 | 155.9 | 110.6 | 570 | 100
7 | B7 | 25 | 145.2 | 151.2 | – | 0
